We go through two molecules from patent US20240024851A1.

Test [1] deals with adeno-associated virus type 2 (AAV2) particles (adeno-associated virus type 2) (UniProt P03135). Description: affinity column (beads), AAV2 crude liquid, 0.2 mL/min, qPCR. In general terms: Real-time PCR tracks product formation cycle by cycle.
The target is the same in test [2]. Description: affinity column (beads), AAV2 crude liquid, retention time 10 sec, qPCR.
Test [3] has the same target. In words: affinity column (beads), AAV2 crude liquid, retention time 5 sec, qPCR.
Test [4] has the same target. In words: affinity column (beads), AAV2 pre-treatment liquid, 0.2 mL/min, qPCR.
Test [5] concerns the target adeno-associated virus type 1 (AAV1) particles (adeno-associated virus type 1). Description: batch adsorption of AAV1 pre-treatment liquid to discs (ligand on nonwoven fabric 1), acid elution, qPCR.

As for “POROS CaptureSelect AAVX (ligand of the commercial affinity resin, Thermo Scientific) (VHH)”, in test [1], the leaked AAV to FT was 5.97e+09 vg, the ratio of leaked AAV to recovered AAV was 1%, the ratio of residual AAV to recovered AAV was found to be 17% and the recovered AAV in elution step worked out at 8.77e+11 vg. The same molecule displayed a residual AAV in washing step in test [1] of 1.49e+11 vg. Besides, in test [2], the leaked AAV to FT came to 4.19e+10 vg, the ratio of leaked AAV to recovered AAV came to 5%, the ratio of residual AAV to recovered AAV came out at 17% and the recovered AAV in elution step was found to be 8.66e+11 vg. The same molecule yielded a residual AAV in washing step in test [2] of 1.47e+11 vg. For the same molecule, in test [3], the leaked AAV to FT stood at 1.38e+11 vg, the ratio of leaked AAV to recovered AAV was 19%, the ratio of residual AAV to recovered AAV came out at 22% and the recovered AAV in elution step turned out to be 7.42e+11 vg. This molecule also had a residual AAV in washing step in test [3] of 1.67e+11 vg. In addition, in test [4], the ratio of residual AAV to recovered AAV came to 48.8%, the recovered AAV in elution step stood at 5.75e+11 vg and the residual AAV in washing step was determined as 2.8e+11 vg.

B1: anti-AAV-VHH antibody VHH1 (VHH)
VHH: QVQLVESGGGLVQAGGSLRLSCAASGRTFSSYAMGWFRQAPGKEREIVASISWNGGSTDYADSVKGRFTISRDNAKNTVYLQMNSLKPEDTAVYYCAADSTNWVFYDYWGQGTQVTVSS
Turning to B1, the amount of the AAV1 adsorbed in test [5] was 1.1e+13 vg/mL-column.
